The record followed here is patent JP2003513027A.

Test [1] concerns the target Cu-OxLDL (copper-oxidised low density lipoprotein). The experiment in a line: cell-based or functional assay.
The target in test [2] is MDA-LDL (malondialdehyde-modified low density lipoprotein). In words: direct binding and competition assays with affinity-purified Fab.
Test [3] addresses Cu-OxLDL (copper-oxidised low density lipoprotein). In words: 125I-Cu-OxLDL binding to mouse peritoneal macrophages on ice, IK17 as competitor, % of control without competitor.

pKd: −log10 of the molar value. Values joined by “and” are separate entries in the source; they are usually repeats but may differ in a detail not shown here. Equal values may be shown once.

As to IK17 human monoclonal IgG Fab, the degradation of 125I-Cu-OxLDL by macrophages (TCA-soluble 125I in the medium), % inhibition in test [1] is 50% and 65%. Also, the pKd (usually the negative decadic logarithm of the Kd, by convention in mol/L) in test [2] was 7.43. Moreover, the % inhibition of the binding of 125I-Cu-OxLDL to macrophages in test [3] was 70% and 85%.
